Substitutions are numbered along the chain they refer to.
How the values were obtained:
[1] = target: T1, human PTH1R on Saos-2 cells (endogenous) (human, UniProt Q03431 27-593); assay: cell-based or functional assay
T1 sequence (looked up): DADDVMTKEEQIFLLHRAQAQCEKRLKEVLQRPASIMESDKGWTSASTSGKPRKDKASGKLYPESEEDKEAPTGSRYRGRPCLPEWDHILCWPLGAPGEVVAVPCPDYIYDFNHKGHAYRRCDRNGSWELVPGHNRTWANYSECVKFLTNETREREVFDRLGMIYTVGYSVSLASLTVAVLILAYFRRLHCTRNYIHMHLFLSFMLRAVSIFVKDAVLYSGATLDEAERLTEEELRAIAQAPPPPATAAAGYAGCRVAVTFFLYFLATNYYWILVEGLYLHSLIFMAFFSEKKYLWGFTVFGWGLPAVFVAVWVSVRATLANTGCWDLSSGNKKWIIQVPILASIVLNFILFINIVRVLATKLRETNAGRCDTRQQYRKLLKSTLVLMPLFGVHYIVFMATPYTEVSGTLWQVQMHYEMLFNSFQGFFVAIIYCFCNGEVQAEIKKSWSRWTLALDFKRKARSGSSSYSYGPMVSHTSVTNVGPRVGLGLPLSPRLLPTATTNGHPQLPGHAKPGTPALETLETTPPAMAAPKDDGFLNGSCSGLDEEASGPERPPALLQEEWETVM

[2] = target: T2, human PTH1R overexpressed on Saos-2 cells (human, UniProt Q03431 27-593); assay: flow cytometry on Saos-2 cells overexpressing human PTH1R, in the presence of 1 uM PTH, PE anti-human IgG
T2 construct: whole, on cells; also called Saos-2 human PTH1R cells
T2 sequence (looked up): T1 sequence (looked up)

[3] = target: T2, human PTH1R overexpressed on Saos-2 …; assay: flow cytometry on Saos-2 cells overexpressing human PTH1R, in the presence of 3 uM PTHrP, PE anti-human IgG
Excerpt: Antibody binding was detected with R-Phycoerythrin anti-human IgG.

[4] = target: T3, human PTH1R overexpressed on CHO cells (human, UniProt Q03431 27-593); assay: cell-based or functional assay
T3 sequence (looked up): T1 sequence (looked up)

[5] = target: T4, rat PTH1R on UMR106 cells (rat, UniProt P25961 27-591); assay: cell-based or functional assay
T4 sequence (looked up): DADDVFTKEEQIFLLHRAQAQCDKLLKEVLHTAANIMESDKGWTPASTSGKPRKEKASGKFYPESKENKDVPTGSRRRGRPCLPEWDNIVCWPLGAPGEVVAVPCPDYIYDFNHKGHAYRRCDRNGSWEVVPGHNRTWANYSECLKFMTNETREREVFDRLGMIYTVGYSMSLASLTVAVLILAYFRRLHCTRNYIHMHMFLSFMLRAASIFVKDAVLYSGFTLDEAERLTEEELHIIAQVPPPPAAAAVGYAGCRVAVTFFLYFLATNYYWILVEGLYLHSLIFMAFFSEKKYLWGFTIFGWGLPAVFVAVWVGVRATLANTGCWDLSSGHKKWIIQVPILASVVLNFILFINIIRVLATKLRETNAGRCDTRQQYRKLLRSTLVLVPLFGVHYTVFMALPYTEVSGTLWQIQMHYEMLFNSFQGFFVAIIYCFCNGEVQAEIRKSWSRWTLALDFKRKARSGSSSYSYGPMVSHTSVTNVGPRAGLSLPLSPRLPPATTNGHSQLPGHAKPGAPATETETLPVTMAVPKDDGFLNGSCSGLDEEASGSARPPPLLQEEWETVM

[6] = target: T1, human PTH1R on Saos-2 cells (endogenous); assay: cell-based or functional assay; remark: listed apart in the source
[7] = target: T3, human PTH1R overexpressed on CHO cells; assay: flow cytometry on CHO cells, 24 hr at 4 C
Experimental: (§1) To characterize antibody binding to PTH1R, cells were labeled with either CellTrace™ CFSE or CellTrace™ Violet. Unlabeled CHOK1 parent, CHO human PTH1R labeled with CellTrace™CFSE, and CHO mouse PTH1R labeled with CellTrace™Violet were pooled together and stained with increasing concentrations of antibody. Antibodies were incubated for 24 hr at 4° C. followed by two washes with FACS Buffer (0.5% BSA, 0.1% NaN3 in DPBS). Cells were then incubated with Allophycocyanin (APC) AffiniPure F(ab′)₂ Fragment Goat Anti-Human IgG (H+L) (Jackson ImmunoResearch, West Grove, Pa.) for 20 minutes at 4° C. Followed by two washes, cells were resuspended in FACS Buffer. Samples were acquired using BD Cytometer (BD Biosciences, San Jose, Calif.) and data were analyzed using FlowJo (FlowJo, LLC, Ashland, Oreg.) and Prism (GraphPad Software, La Jolla, Calif.).

[8] = target: T5, mouse PTH1R overexpressed on CHO cells (mouse, UniProt P41593 27-591); assay: flow cytometry on CHO cells, 24 hr at 4 C
T5 construct: whole, on cells; also called CHO mouse PTH1R; CHO Mouse PTHR
T5 sequence (looked up): T4 sequence (looked up) with S58P, P497L, T518I, T520N, L523I, A528T
Experimental: as §1

[9] = target: T3, human PTH1R overexpressed on CHO cells; assay: flow cytometry on CHO cells, with 1 uM PTH as competitor
Experimental: as §1

[10] = target: T5, mouse PTH1R overexpressed on CHO cells; assay: as above
Experimental: as §1

B1: XPA.85.329 (antibody, V domains shown)
VH: QMQLVQSGAEVKKPGSSVKVSCKASGGTFSSYAISWVRQAPGQGLEWMGGIIPIFGTANYAQKFQGRVTITADESTSTAYMELSSLRSEDTAVYYCARGYVVARLWGQGTLVTVSS
VL: DIVMTQTPLSLSVTPGQPASISCKSSQSLLHIDGLTYLYWYLQKPGQPPQLLIYEVSHRFSGVSDKFSGSGSGTDFTLTISRVEAEDVGVYYCMQSLHLPITFGQGTRLEIK
notes: IgG; also called Ab329; XPA.329
EC50 of antibody, neutralization of M-CSF production induced by 12.5 nM PTHrP (1-36) [1]: 4 nM | fold shift of the PTHrP (1-36) dose response, M-CSF secretion by Saos-2 cells, 40 µg/mL antibody [1]: > 200 fold | EC50 [2]: 35.3 nM | EC50 [3]: 656 nM

B2: XPA.85.341 (antibody, V domains shown)
VH: EVQLVETGGGVVRPGGSLRLSCAASGFTFSSSAMSWVRQTPGKELQWVSAITPGGEGTYYADVVKGRFTISRDNSKDTLYLQMDSLRAEDTAVYYCARDLYGSYGDAFDIWGQGTLVTVSS
VL: SYELTQPSSVSVSPGQTASITCSGDKLGEKYASWYQQKPGQSPVLVMFEDTKRPSGIPERFSGSNSGNTATLTISGTQAEDEADYYCQAWDSSWVFGGGTQLTVL
notes: Light-chain-shuffled variant of XPA.85.017
EC50 of PTH(1-34), cAMP assay, with 267 nM IgG [4]: 0.404 nM | EC50 of PTH(1-34), cAMP assay, with 267 nM IgG [5]: 13.7 nM | EC50 of PTH(1-34), cAMP assay, with 267 nM IgG [6]: 38.1 nM | EC50 of PTHrP(1-34), cAMP assay, with 267 nM IgG [6]: 63 nM | EC50 [7]: 0.202 nM | EC50 [8]: 0.343 nM | EC50 [9]: 5.39 nM | EC50 [10]: 0.778 nM

B3: XPA.85.287 (antibody, V domains shown)
VH: B2 VH
VL: SYVLTQPPSVSVAPGQTARITCSGDKLGDRYVSWYQQKPGQSPVLVMFEDTGRPAGIPERFSGSNSGNTATLTISGTQAEDEADYYCQAWGTSWVFGGGTQLTVL
notes: also called Ab287
fold shift of the PTH (1-34) dose response, M-CSF secretion by Saos-2 cells, 40 µg/mL antibody [1]: ~7 fold | EC50 of PTH(1-34), cAMP assay, with 267 nM IgG [4]: 0.908 nM | EC50 of PTHrP(1-34), cAMP assay, with 267 nM IgG [4]: 52.7 nM | fold-shift in PTH(1-34) EC50 vs vehicle only, cAMP assay [4]: 29 fold | fold-shift in PTHrP(1-34) EC50 vs vehicle only, cAMP assay [4]: > 100 fold | EC50 of PTH(1-34), cAMP assay, with 267 nM IgG [5]: 66.7 nM | EC50 of PTHrP(1-34), cAMP assay, with 267 nM IgG [5]: 11.6 nM | fold-shift in PTH(1-34) EC50 vs vehicle only, cAMP assay [5]: > 100 fold | fold-shift in PTHrP(1-34) EC50 vs vehicle only, cAMP assay [5]: 35 fold | EC50 of PTH(1-34), cAMP assay, with 267 nM IgG [6]: 78.6 nM | EC50 of PTHrP(1-34), cAMP assay, with 267 nM IgG [6]: 62.2 nM | fold-shift in PTH(1-34) EC50 vs vehicle only, cAMP assay [6]: > 100 fold | fold-shift in PTHrP(1-34) EC50 vs vehicle only, cAMP assay [6]: 89 fold | EC50 [7]: 0.044 nM | EC50 [8]: 0.216 nM | EC50 [9]: 1.86 nM | EC50 [10]: 0.206 nM

B4: XPA.85.339 (antibody, V domains shown)
VH: B2 VH
VL: SYELTQPPSVSVAPGQTATITCSGDRLGDKFISWYQQKPGQSPLLVIFEDNERPSRIPERFSGSNSGNSATLTISGTQAVDEADYYCQAWDSSWVFGGGTQLTVL
notes: as for B2
EC50 of PTH(1-34), cAMP assay, with 267 nM IgG [4]: 0.613 nM | EC50 of PTH(1-34), cAMP assay, with 267 nM IgG [5]: 7.9 nM | EC50 of PTHrP(1-34), cAMP assay, with 267 nM IgG [5]: 3.48 nM | EC50 of PTH(1-34), cAMP assay, with 267 nM IgG [6]: 24.8 nM | EC50 of PTHrP(1-34), cAMP assay, with 267 nM IgG [6]: 31.4 nM | EC50 [7]: 0.142 nM | EC50 [8]: 0.234 nM | EC50 [9]: 2.98 nM | EC50 [10]: 0.327 nM
